The values that follow come from article PMC2965237 (Nucleic Acids Research, 2010).

This data set concerns the molecule itself. Kind of data set: SEC. On the technique in general: Size exclusion chromatography separates by hydrodynamic size, large species first.

B1: RdgC Δfinger (P76G, Δ77–115, L116T) (natural protein)
chain: not shown
As for B1, the binding result is “binds”.

B2: RdgC protein (Escherichia coli), wild type (natural protein)
chain: not shown
Take B2: the stoichiometry N (usually a count of units in the complex or per binding partner) worked out at 2.

B3: RdgC Δfinger R118C (natural protein)
chain: not shown
In the case of B3, the binding result was “binds”.

B4: RdgC R118C (natural protein)
chain: not shown
Regarding B4, the binding result was “binds”.
